Experimental data from patent publication US20230227580A1, “ANTI-VWF ANTIBODIES AND USES THEREOF” (MONASH UNIVERSITY, priority 2020, published 2023).
Entries after “also recorded” stand apart in the source; their conditions may differ.

Legend:
[1] = tested on: VWF-platelet interaction; test: Platelet-VWF adhesion on collagen III in stenotic microfluidic channels (SRG versus constant shear); format: cell-based, human
Description: (§1) In-house designed PDMS microfluidic chips (FIG. 1A) contained channels of 52 µm height with a footprint of 300 µm x 46 mm (used in FIG. 1) or 300 µm x 17 mm. Selected channels incorporated a semi-circular stenotic section of various lengths (600 µm, 1000 µm or 2000 µm diameter), creating 80% lumen reduction. Chips were manufactured as previously reported (Westein et al. Proceedings of the National Academy of Sciences of the United States of America. 2013 Jan 22;110(4):1357-62). The produced PDMS chips were sealed with cover slips by hydrophobic interaction and coated with collagen by perfusion of collagen solution followed by static incubation at RT for at least 1 hr. Channels were rinsed with PBS and blocked with 2% BSA. Wall shear rates of the input flow for these microchannels were approximated from volumetric flow rates by using the equation, γ = 6Q/wh2. Herein, γ is the wall shear rate (s^-1), Q the volumetric flow rate (mls^-1), w the channel with (cm) and h the channel height (cm).
(§2) Citrated whole blood was incubated with DiOC6 (0.5 µg ml^-1) (Sigma-Aldrich Co, St. Louis, MO, USA) and drawn through microfluidic channels by a programmable syringe pump (Legato 130, KD Scientific, USA). Time-lapse z-stack images of platelet deposition were captured in multiple track, resonant scanning mode, using a Nikon A1R confocal microscope system. Platelet deposition was recorded over time (2 frames per minute) for up to 20 minutes and quantified in ImageJ using a Z-projection of the acquired signal.
(§3) For experiments measuring rolling velocities, anti αllbβ3 antibody (abciximab; 20 µg ml^-1)-treated whole blood containing 0.5 µg ml^-1 DiOC6 was drawn over a collagen type III-coated surface. Where indicated, blood was incubated with 30 µM aspirin (Sigma Aldrich, USA) and 300 µM 2-MeSAMP (Sigma-Aldrich Co, St. Louis, MO, USA) prior to blood perfusion. 10 second video clips of rolling platelets were recorded in the green fluorescent channel using an Olympus IX81 microscope system. Platelet rolling velocities were calculated using Diatrack v3.04 large scale particle tracking software (Vallotton et al. Microsc Microanal. 2013 Apr;19(2):451-60).

[2] = biological target: T1, VWF-A1 domain (Homo sapiens, UniProt P04275); test: BLItz bio-layer interferometry, immobilized VWF-A1 domain; format: binding; conditions: scFv-A1 20, 40 and 100 µg ml^-1
T1 construct: coated with purified full length VWF or isolated A1 domain
Experimental: (§4) Bio-layer Interferometry was performed on a BIItz System (Pall Forte Bio, USA). Protein-A biosensors were hydrated for 30 minutes in PBS-Tween (0.05%) and loaded with VWF-A1 domain (130 µg ml^-1). Remaining binding sites were blocked by exposure to a polyclonal mouse IgG for 5 min. Sequential adhesion of scFv-A1 at 0, 20, 40 and 100 µg ml^-1 was monitored for 5 min per concentration. Real time visualisation of binding interactions between scFv A1 and full length VWF/A1 domain was performed using the BLItz Pro software. Traces were manually baseline aligned and corrected for control binding (0 µg ml^-1 scFv-A1).

[3] = tested on: platelet aggregation / thrombus formation; test: Progressive shear gradient flow model: whole blood over collagen type I patches in straight channels; format: cell-based, human; conditions: scFv A1 5 µg ml^-1, 1,000 s^-1
Description: Fluid dynamics were simulated with a COMSOL Multiphysics 4.2 laminar flow module applied to three-dimensional meshes. For all simulations, no-slip boundary conditions and Newtonian fluids were assumed. To obtain meshes from the plain channel geometries, channel dimensions were taken from the original computer-aided design (CAD) files and reconstructed in COMSOL. To obtain meshes from platelet aggregate geometries, confocal fluorescence microscopy image z-stacks of labeled platelets were processed in ImageJ. Each image in a z-stack was converted into a binary image by thresholding, and an x-y heightmap was constructed by summing all binary data in a z-stack followed by multiplying the result with the height of the original z-stack as documented by the confocal microscope. […] Input flow parameters were set based on pump settings as used in the experiments, and were adjusted to account for the reduced width of the fluorescence aggregate meshes compared to the full channel geometries. […]
as §2, with “Time-lapse z-stack images of platelet deposition were captured in multiple track, resonant scanning mode, using a Nikon A1R confocal microscope system.” left out

[4] = tested on: VWF-GPIbα bond strength (platelets rolling on VWF-collagen III); test: Platelet rolling velocity on collagen III bound VWF in stenotic or straight microfluidic channels; format: cell-based, human; conditions: scFv A1
Description: as §1, with “Herein, γ is the wall shear rate (s^-1), Q the volumetric flow rate (mls^-1), w the channel with (cm) and h the channel height (cm).” left out
as §3, with “Where indicated, blood was incubated with 30 µM aspirin (Sigma Aldrich, USA) and 300 µM 2-MeSAMP (Sigma-Aldrich Co, St. Louis, MO, USA) prior to blood perfusion.” left out

[5] = biological target: T2, denatured full length VWF (Homo sapiens, UniProt P04275); test: Western blot of denatured VWF probed with scFv A1; format: binding; conditions: scFv A1 1 µg ml^-1; SDS-PAGE denatured VWF
T2 construct: Denatured full length VWF (Mybiosource, USA) was electrophoresed; purchased Mybiosource
Experimental: Denatured full length VWF (Mybiosource, USA) was electrophoresed at 0.1, 10, 100 ng and 1 µg using 5% SDS-Polyacrylamide gel at 125 V for 90 min. The protein was transferred onto PVDF membrane at 90V for 90 min followed by incubation with 1 µg ml^-1 scFv A1 overnight and the membrane was probed with horse-radish peroxidase (HRP)-conjugated detection antibody (1:2500, Sigma).
Later, the membrane was stripped and reprobed with 1 µg ml^-1 polyclonal sheep anti-VWF antibody (Abcam), followed by donkey anti-sheep HRP-conjugated secondary antibody (1:2500, R&D Systems, USA). Chemiluminescent detection of protein bands was done using ECL Western Blotting Substrate (ThermoFisher) and visualisation using a ChemiDoc Touch Imaging system (Bio-Rad, UK).

[6] = biological target: T3, isolated VWF A1 domain (Homo sapiens, UniProt P04275); test: ELISA binding to isolated VWF A1 domain; conditions: scFv A1 5 µg ml^-1
T3 construct: coated with purified full length VWF or isolated A1 domain
Experimental: (§5) ELISA wells (Thermo Fisher Scientific) were coated with purified full length VWF or isolated A1 domain at 0.1, 1 and 10 µg ml^-1 in the presence of ristocetin (0.75 mg ml^1) and blocked with 2% BSA. Next, the coated wells were incubated with 5 µg ml^-1 of scFv A1 or sheep anti-VWF antibody followed by incubation with an HRP-conjugated secondary antibody (Anti-his HRP for scFv A1, Donkey anti-sheep HRP antibody for sheep anti-VWF antibody) (1:4,000). Readings were measured at 450 nm on a BMG Optima multi-well reader.

[7] = biological target: T4, VWF-full length (Homo sapiens, UniProt P04275); test: BLItz bio-layer interferometry, immobilized full length VWF; conditions: BLItz binding assay
T4 construct: coated with purified full length VWF or isolated A1 domain
Experimental: as §4

[8] = biological target: T5, full length VWF (Homo sapiens, UniProt P04275); test: ELISA binding to immobilized full length VWF; conditions: scFv A1 5 µg ml^-1; ristocetin 0.75 mg ml^-1
T5 construct: coated with purified full length VWF or isolated A1 domain
Experimental: as §5

Binding to immobilized VWF-A1 domain [2]: did not observe any binding | Complex formation with denatured VWF [5]: did not show any complex formation | Binding to isolated VWF A1 domain [6]: did not bind | Binding to immobilized VWF-full length [7]: did not observe any binding | Binding to immobilized full length VWF [8]: did not bind
B1: scFv A1: single chain antibody combining variable heavy chain of mAb CR1 with variable light chain of mAb CR2; VH SEQ ID NO: 11, VL SEQ ID NO: 10 (antibody, V domains shown)
VH: QVQLQQPGAELVRPGASVKLSCKASGYSFTNYWMSWVKQRPGQGLEWIGMIHPSDSDTRLNQKFKDKATLTVDKSSSTAYMQLSSPTSEDSAGLLLCKKFEGWLPVLLGPRHHSHSLLS
VL: DIELTQSPASLAVSLGQSYRASCKSVSTSGYSYMHWNQQKPGQPPRLLIYLVSNLESGVPARFSGSGSGTDFTLNIHPVEEEDAATYYCQHIRELTRSEGDQAEINR
modifications: scFv linker; Mouse
Platelet adhesion ([1]; scFv A1 5 µg ml^-1, stenosis apex, control 3934±892, p=0.7932): 3805±783 platelets/mm^2 | Platelet-VWF adhesion ([1]; scFv A1 5 µg ml^-1, stenosis inlet, control 6187±1097, p=0.0013): 5158±1032 platelets/mm^2 | Platelet adhesion ([1]; scFv A1 5 µg ml^-1, stenosis outlet, control 5042±1167, p=0.07): 4475±1199 platelets/mm^2 | Platelet deposition ([1]; scFv A1 5 µg ml^-1, straight section, constant shear, control 2047±232, p=0.0195): 3096±690 platelets/mm^2 | Relative amount of VWF per platelet deposited on aggregates ([1]; scFv A1, areas of SRGs and constant shear): not reduced | Platelet aggregation in the rear area of the collagen patch ([3]; constant shear, SRGs absent): did not reduce; also recorded: not at the rear | Platelet aggregation at the front area of the collagen patch ([3]; local shear gradient): selectively attenuated; also recorded: inhibited platelet aggregation only at the front of the patch | Effect on platelet rolling velocities ([4]; areas other than the stenosis apex): largely unaffected | Platelet rolling velocity ([4]; stenosis apex, control 4.41±0.1, p=0.038): 4.6±0.1 µm s^-1
